# What was measured:
# [1] = biological target: T1, SoxR (Streptomyces coelicolor) (UniProt Q9S255); test: EMSA; conditions: EMSA: 10 mM Tris-HCl pH 8, 75 mM KCl, 0.1 mM DTT, 10% glycerol, 2 mM MgCl2, 0.1 ug poly(dI)-poly(dC), 2 mM dAMP, 30 uL, 6 fmol probe, SoxR 0-20 nM, 15 min …
# T1 sequence: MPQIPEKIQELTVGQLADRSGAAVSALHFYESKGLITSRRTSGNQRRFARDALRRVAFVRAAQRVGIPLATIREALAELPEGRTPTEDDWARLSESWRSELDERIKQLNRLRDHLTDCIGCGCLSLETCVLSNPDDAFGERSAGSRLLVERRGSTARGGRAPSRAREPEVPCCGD
# [2] = biological target: T1, SoxR (Streptomyces coelicolor); test: competition; conditions: EMSA: 10 mM Tris-HCl pH 8, 75 mM KCl, 0.1 mM DTT, 10% glycerol, 2 mM MgCl2, 0.1 ug poly(dI)-poly(dC), 2 mM dAMP, 30 uL, 6 fmol probe, SoxR 0-20 nM, 15 min …
Substance,Kd [1] [nM],K_half [1],binding [2]
SCO1177 upstream probe,> 20,–,–
SCO0321 upstream probe,> 20,–,–
ecaD (SCO4266) promoter probe,5,–,–
GACAGTCGTAGGCGGTTCCGCCCCTCCATACGTCACCCCTTGCCGACCGGCCCGACTCCACCGCGGACGACGGACGAGCCTTGACCTCGACCGGACTTGAGGTTGGAGGCTGGGCGGGATGTCGCCTCCAGTGAAGGGTGCTGCTCATGCATGCGATCCACGTGGCCTCGTTCGGTGCTCCGGACGTGCTGAGCCTGGTC (double strand) [SCO0320ext promoter probe],–,binds,binds
